Biological target: ShB-IR (Shaker ShB variant with inactivation removed) (UniProt P08510)
Experiment: cell-based or functional assay

ShB-IR (Shaker ShB variant with inactivation removed), sequence (P08510 other isoform, or with tags, fused parts or gaps mutant): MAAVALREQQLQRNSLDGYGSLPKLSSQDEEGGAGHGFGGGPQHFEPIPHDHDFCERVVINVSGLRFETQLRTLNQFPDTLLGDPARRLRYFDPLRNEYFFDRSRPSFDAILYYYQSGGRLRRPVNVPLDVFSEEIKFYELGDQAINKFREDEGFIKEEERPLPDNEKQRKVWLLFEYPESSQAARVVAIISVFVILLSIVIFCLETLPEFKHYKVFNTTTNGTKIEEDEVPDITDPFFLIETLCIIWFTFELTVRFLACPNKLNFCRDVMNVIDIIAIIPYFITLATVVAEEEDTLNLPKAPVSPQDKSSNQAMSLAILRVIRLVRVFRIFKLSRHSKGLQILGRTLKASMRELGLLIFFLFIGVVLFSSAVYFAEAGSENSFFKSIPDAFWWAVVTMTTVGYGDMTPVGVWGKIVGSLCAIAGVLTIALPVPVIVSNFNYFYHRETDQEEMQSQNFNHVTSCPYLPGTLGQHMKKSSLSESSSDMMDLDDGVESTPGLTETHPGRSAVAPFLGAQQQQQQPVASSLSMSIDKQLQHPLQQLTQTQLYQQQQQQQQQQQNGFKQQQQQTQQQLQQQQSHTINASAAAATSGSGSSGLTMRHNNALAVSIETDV

Substance: recombinant charybdotoxin (ChTx) (from UniProt P13487 23-59) (peptide)
- inhibition of ShB-IR currents by 24 nM recombinant ChTx, two-electrode voltage clamp: 15%

From US20090203598A1
